We go through one molecule from US9803012B2, “Compositions and methods for regulating SAS1R” (UNIVERSITY OF VIRGINIA PATENT FOUNDATION, priority 2005, dated 2017).

The subject of one experiment is zona-free mouse eggs. Kind of experiment: In vitro fertilization with zona-free eggs (sperm-oolemma binding and fusion). It is filed as cell-based. As to the method: For the sperm-oolemma binding assay, two cauda epididymides were placed in 900 μl drops of fertilization medium under paraffin oil for the dense mass of spermatozoa to flow freely for ˜15 min and then diluted at 1×10^6/ml for 3 h of capacitation. Cumulus oocyte complexes were placed in 200 μl drops of TYH medium under paraffin oil. Cumulus cells were removed by treating the oocytes for 3 min with 1 mg/ml hyaluronidase in TYH medium and then washed 8 times in 50 μl drops. Zona pellucidae were loosened by treating the oocytes with 10 μg/ml chymotrypsin in TYH media for 1 min and loosened zonae were removed by mechanical agitation using a pulled Pasteur pipette. The oocytes were then washed 10 times and allowed to recover from chymotrypsin treatment by incubating in TYH media for 3 h, following which, they were stained with 10 μg/ml Hoechst dye for 10 min, and then gently washed. […]
To compare the effects of recmSLLP1 with human and chicken c lysozymes, spermatozoa were first incubated under standard capacitating conditions. Oocytes were pre-incubated for 45 min before insemination with recmSLLP1 (0.1 to 200 μg/ml) or with hSLLP1 (25 μg/ml) or with chicken or human lysozyme (50 μg/ml, 100 μg/ml). Untreated capacitated sperm were then added to the incubation drops containing the treated eggs with a final sperm concentration of 2.5×10^4/ml. Thus, in all the experiments performed the sera, the recombinant protein, or the lysozyme was present in the incubation droplet during gamete interaction. After 30 min of gamete co-incubation, oocytes were gently washed 5 times in TYH medium and placed between a microscope slide and an elevated coverslip and visualized at 160×. Binding to the oocyte was scored by counting the number of bound spermatozoa per oocyte using phase contrast. Fusion with the egg was scored by counting the number of decondensed sperm heads within each oocyte using fluorescence microscopy.

For another experiment, the system named is Metaphase II eggs. Kind of experiment: Egg labeling by indirect immunofluorescence. It counts as cell-based, mouse. The settings on record: 100 μg/ml protein, 45 min. The protocol:
Metaphase II eggs were obtained as previously described (Coonrod et al, 1999) and incubated with 5% NGS/media for 30 min. Oocytes were washed five times in TYH medium and incubated with 100 μg/ml recmSLLP1 or 100 μg/ml lysozymes for 45 min at 37° C. and 5% CO2. Oocytes were washed five times and incubated with guinea pig anti-recmSLLP1 polyclonal antibody (1:50), sheep anti-human lysozyme (1:25) or rabbit anti-chicken lysozyme (1:400) in 5% NGS/media for 1 h at 37° C. and 5% CO2. Oocytes were washed five times and incubated with donkey anti-guinea pig/Texas Red antibody (1:200) or goat anti-guinea pig/FITC antisera 1:200), donkey anti-sheep and goat anti-rabbit FITC-labeled secondary antibody (1:200) (Jackson ImmunoResearch), respectively in 5% NGS/media for 1 h at […] 37° C. and 5% CO2. Oocytes were washed and mounted in media onto glass slides and visualized under a Zeiss Standard 18 ultraviolet microscope. Images were captured by using MrGrab 1.0 (Carl Zeiss Vision GmbH, Germany).

Another experiment has as its target T1, recombinant MET (Mus musculus, UniProt Q9CWU5).
T1 construct: A complete cDNA encoding 440 amino acids was amplified from cDNA library (Ambion) of mouse ovary and cloned in pET expression vector; His-tag (pET fusion); made in house; host or cells: E. coli BL21
T1 sequence (Q9CWU5 1-440): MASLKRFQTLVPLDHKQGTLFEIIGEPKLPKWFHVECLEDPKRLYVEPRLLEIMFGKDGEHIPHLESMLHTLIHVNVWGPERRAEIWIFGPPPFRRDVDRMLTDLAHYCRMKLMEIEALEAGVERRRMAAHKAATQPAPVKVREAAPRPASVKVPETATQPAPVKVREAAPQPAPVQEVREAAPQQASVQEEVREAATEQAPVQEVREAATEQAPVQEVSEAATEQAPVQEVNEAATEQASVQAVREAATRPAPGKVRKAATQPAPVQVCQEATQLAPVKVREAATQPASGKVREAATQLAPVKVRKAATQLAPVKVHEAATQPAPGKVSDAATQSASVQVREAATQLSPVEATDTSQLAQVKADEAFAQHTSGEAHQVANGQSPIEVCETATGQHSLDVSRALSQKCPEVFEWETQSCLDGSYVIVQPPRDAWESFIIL
T1 sequence (Q9D9X8 94-221 partner limits assumed): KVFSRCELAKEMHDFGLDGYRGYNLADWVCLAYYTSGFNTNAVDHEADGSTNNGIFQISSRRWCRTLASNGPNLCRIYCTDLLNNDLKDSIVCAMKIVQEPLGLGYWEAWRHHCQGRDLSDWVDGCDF
In words: Far-Western analysis of MET and SLLP1. It counts as binding. The settings on record: 7 μg recombinant MET, recombinant SLLP1 overlay 2 μg/ml. The protocol:
To that end, 7 μg of recombinant MET was loaded on 12% SDS-PAGE and transferred to nitrocellulose. The membrane was overlaid (OL) with recombinant SLLP1 (2 μg/ml) and probed with anti-SLLP1 monoclonal antibody and secondary antibody.

Where [1] appears, read: recmSLLP1 200 μg/ml (12.5 μM), oocytes pre-incubated.
[2] abbreviates: relative to the controls, including recombinant egg protein ePAD.

B1: recmSLLP1: mature mouse SLLP1, residues 94 to 221, six-histidine C terminal tag, expressed in E. coli, about 15 kDa (protein)
chain: T1 sequence (Q9D9X8 94-221 partner limits assumed)
modifications: left off: small tags and cut ends
Take B1: the “sperm-egg binding and fusion” value in the experiment on zona-free mouse eggs (50 μg of mouse SLLP1) is reported as “maximally inhibited”. In the experiment on zona-free mouse eggs (setting [1]), this molecule came in with an inhibition of binding of 100% and an inhibition of fusion of 100%. The “lowest concentration with significant effect on spermatozoa bound to or fused to the egg” value in the experiment with zona-free mouse eggs (recmSLLP1 0.1-200 μg/ml) was found to be 0.1 µg/mL. Besides, in the experiment on zona-free mouse eggs (setting [2]), the “sperm-egg binding, number of sperm bound/egg” value is recorded as “essentially completely inhibit” and the sperm-egg fusion result is on record as “essentially completely inhibit”. For the same molecule, the “fluorescence of mouse oocytes after incubation with protein and respective antibody” value in the experiment with Metaphase II eggs is “fluorescent labeling within the perivitelline space and over much of the oocyte surface”. In addition, the “binding to purified MET” value with recombinant MET is given as “strong signal”.
